Source: patent US20230265151A1, “GIP/GLP1 CO-AGONIST COMPOUNDS” (priority 2020, published 2023)
Numbering of substitutions follows the chain as printed. *1 amine or outer side, *2 acyl side, *3 side chain or, on linkers, in order; H or OH if unused. Where no end group is shown, it is not given here. Side-chain parts run from the residue outwards. [ ]: non-standard residue; d: D form. The star is where a group is joined. Decanoyl(10-(4-HOOC-PhO)) = O=C(O)c1ccc(OCCCCCCCCCC(=O)*)cc1; αMePhe(2-F) = C[C@](N)(Cc1ccccc1F)C(=O)O; γGlu = O=C(O)[C@H](CCC(=O)[*:2])N[*:1]; αMeY = C[C@](N)(Cc1ccc(O)cc1)C(=O)O; αMeL = CC(C)C[C@](C)(N)C(=O)O; Orn = NCCC[C@H](N)C(=O)O; AEEA = NCCOCCOCC(=O)O; Aib = CC(C)(N)C(=O)O

B1: Y-Aib-EGT-αMeF(2F)-TSD-4Pal-Aib-I-αMeL-LD-Orn-QAQ-Aib-Orn-FIK((γ-Glu)-(2-[2-(2-Amino-ethoxy)-ethoxy]-acetyl)2-(γ-Glu)-CO-(CH2)12-CO2H)-αMeY-LIK((γ-Glu)-(2-[2-(2 … (peptide)
peptide: YXEGTXTSDXXIXLDXQAQXXFIKXLIKGGPSSGAPPPS
modifications: Aib2, αMeF(2F)6, 4Pal10, Aib11, αMeL13, Orn16, Aib20, Orn21, K24(Z1), αMeY25, K28(Z1), C-term NH2; Z1=(γ-Glu)-AEEA2-(γ-Glu)-CO-(CH2)12-CO2H
B2: Y-Aib-EGT-αMeF(2F)-TSD-4Pal-Aib-I-αMeL-LD-Orn-QAQ-Aib-Orn-FIK((2-[2-(2-Amino-ethoxy)-ethoxy]-acetyl)-(γ-Glu)-(10-(4-carboxyphenoxy)decanoyl))-αMeY-LIK((2-[2-(2- … (peptide)
peptide: B1 peptide
modifications: Aib2, αMeF(2F)6, 4Pal10, Aib11, αMeL13, Orn16, Aib20, Orn21, K24(Z1), αMeY25, K28(Z1), C-term NH2; Z1=AEEA-(γ-Glu)-(10-(4-carboxyphenoxy)decanoyl)
B3: Y-Aib-EGT-αMeF(2F)-TSD-4Pal-Aib-I-αMeL-LD-Orn-QAQ-Aib-Orn-FIK((2-[2-(2-Amino-ethoxy)-ethoxy]-acetyl)-Ahx-(γ-Glu)-(10-(4-carboxyphenoxy)decanoyl))-αMeY-LIK((2-[2 … (peptide)
peptide: B1 peptide
modifications: Aib2, αMeF(2F)6, 4Pal10, Aib11, αMeL13, Orn16, Aib20, Orn21, K24(Z1), αMeY25, K28(Z1), C-term NH2; Z1=AEEA-Ahx-(γ-Glu)-(10-(4-carboxyphenoxy)decanoyl)
B4: Y-Aib-EGT-αMeF(2F)-TSD-4Pal-Aib-I-αMeL-LD-Orn-QAQ-Aib-Orn-FIK(Ahx-(2-[2-(2-Amino-ethoxy)-ethoxy]-acetyl)-(γ-Glu)-CO-(CH2)12-CO2)-αMeY-LIK(Ahx-(2-[2-(2-Amino-eth … (peptide)
peptide: B1 peptide
modifications: Aib2, αMeF(2F)6, 4Pal10, Aib11, αMeL13, Orn16, Aib20, Orn21, K24(Z1), αMeY25, K28(Z1), C-term NH2; Z1=Ahx-AEEA-(γ-Glu)-CO-(CH2)12-CO2 (so in the source)
B5: Y-Aib-EGT-αMeF(2F)-TSD-4Pal-Aib-I-αMeL-LD-Orn-QAQ-Aib-Orn-FIK(PEG3-(γ-Glu)-CO-(CH2)12-CO2H)-αMeY-LIK(PEG3-(γ-Glu)-CO-(CH2)12-CO2H)GGPSSGAPPPS-NH2 (peptide)
peptide: B1 peptide
modifications: Aib2, αMeF(2F)6, 4Pal10, Aib11, αMeL13, Orn16, Aib20, Orn21, K24(Z1), αMeY25, K28(Z1), C-term NH2; Z1=PEG3-(γ-Glu)-CO-(CH2)12-CO2H
B6: Y-Aib-EGT-αMeF(2F)-TSD-4Pal-Aib-I-αMeL-LD-Orn-QAQ-Aib-EFIK((2-[2-(2-Amino-ethoxy)-ethoxy]-acetyl)3-(γ-Glu)-(10-(4-carboxyphenoxy)decanoyl)-αMeY-LIK((2-[2-(2-Ami … (peptide)
peptide: B1 peptide with X21E
modifications: Aib2, αMeF(2F)6, 4Pal10, Aib11, αMeL13, Orn16, Aib20, K24(Z1), αMeY25, K28(Z1), C-term NH2; Z1=AEEA3-(γ-Glu)-(10-(4-carboxyphenoxy)decanoyl)
B7: Y-Aib-EGT-αMeF(2F)-TSD-4Pal-SI-αMeL-LD-Orn-K((2-[2-(2-Amino-ethoxy)-ethoxy]-acetyl)2-(10-(4-carboxyphenoxy)decanoyl))AQ-Aib-EFI-(D-Glu)-αMeY-LIEGGK((2-[2-(2-Ami … (peptide)
peptide: YXEGTXTSDXSIXLDXKAQXEFIXXLIEGGKSSGAPPPS
modifications: Aib2, αMeF(2F)6, 4Pal10, αMeL13, Orn16, K17(Z1), Aib20, D-Glu24, αMeY25, K31(Z1), C-term NH2; Z1=AEEA2-(10-(4-carboxyphenoxy)decanoyl)
B8: Y-Aib-EGT-αMeF(2F)-TSD-4Pal-SI-αMeL-LD-Orn-K((2-[2-(2-Amino-ethoxy)-ethoxy]-acetyl)-(γ-Glu)-CO-(CH2)12-CO2H)AQ-Aib-EFI-(D-Glu)-αMeY-LIEGGK((2-[2-(2-Amino-ethoxy … (peptide)
peptide: B7 peptide
modifications: Aib2, αMeF(2F)6, 4Pal10, αMeL13, Orn16, K17(Z1), Aib20, D-Glu24, αMeY25, K31(Z1), C-term NH2; Z1=AEEA-(γ-Glu)-CO-(CH2)12-CO2H

Key:
[1] = target: T1, human GIP receptor (human, UniProt P48546 22-466); experiment: SPA competition vs [125I]-GIP, hGIPR membranes
T1 construct: whole, on cells; also called hGIPR; human glucose-dependent insulinotropic polypeptide receptor
T1 sequence (looked up): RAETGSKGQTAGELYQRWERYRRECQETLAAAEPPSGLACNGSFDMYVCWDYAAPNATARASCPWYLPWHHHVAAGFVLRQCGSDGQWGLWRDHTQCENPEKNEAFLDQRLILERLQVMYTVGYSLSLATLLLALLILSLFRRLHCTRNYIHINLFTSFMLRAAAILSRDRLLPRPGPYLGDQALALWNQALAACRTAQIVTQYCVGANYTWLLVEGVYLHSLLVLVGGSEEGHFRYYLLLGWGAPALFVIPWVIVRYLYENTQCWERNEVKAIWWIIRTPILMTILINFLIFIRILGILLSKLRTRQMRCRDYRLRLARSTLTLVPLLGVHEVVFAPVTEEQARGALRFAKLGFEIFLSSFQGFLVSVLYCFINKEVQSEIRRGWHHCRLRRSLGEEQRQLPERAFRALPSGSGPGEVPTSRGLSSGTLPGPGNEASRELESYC

[2] = target: T2, human glucagon receptor (human, UniProt P47871 26-477); experiment: SPA competition vs [125I]-Gcg, hGcgR membranes
T2 construct: whole, on cells; also called hGCGR; hGcgR
T2 sequence (P47871 26-477): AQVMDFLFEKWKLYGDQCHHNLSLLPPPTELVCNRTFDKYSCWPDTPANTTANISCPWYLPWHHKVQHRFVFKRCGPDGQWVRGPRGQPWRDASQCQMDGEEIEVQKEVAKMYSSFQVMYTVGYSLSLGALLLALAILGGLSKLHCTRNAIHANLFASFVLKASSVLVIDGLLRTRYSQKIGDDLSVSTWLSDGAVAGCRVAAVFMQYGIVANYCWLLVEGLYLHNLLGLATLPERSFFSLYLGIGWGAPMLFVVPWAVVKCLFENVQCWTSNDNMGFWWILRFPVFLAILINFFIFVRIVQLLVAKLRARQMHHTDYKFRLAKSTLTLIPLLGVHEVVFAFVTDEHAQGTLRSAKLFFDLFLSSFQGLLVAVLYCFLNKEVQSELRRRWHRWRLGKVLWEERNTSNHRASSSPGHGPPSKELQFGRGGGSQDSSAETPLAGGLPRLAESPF

[3] = target: T3, human GLP-1 receptor (human, UniProt P43220 24-463); experiment: SPA competition vs [125I]-GLP-1, hGLP-1R membranes
T3 construct: whole, on cells; also called hGLP-1R; human glucagon-like peptide-1 receptor
How it was run: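 Competition binding in 25 mM HEPES pH 7.4, 2.5 mM CaCl₂, 1 mM MgCl₂, 0.1% bacitracin, 0.003% TWEEN-20, EDTA-free protease inhibitors. IC₅₀ from four-parameter nonlinear fit; Kᵢ given as geometric mean ± SEM, n = independent replicates on different days.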

Row | Binder | Ki [1] [nM] | Ki [2] [nM] | Ki [3] [nM]
1 | B1 | 0.0277 | 273 | 0.254
2 | B2 | 0.0183 | 54.5 | 0.143
3 | B3 | 0.013 | 71.8 | 0.123
4 | B4 | 0.0239 | 258 | 0.234
5 | B5 | 0.0232 | 170 | 0.266
6 | B6 | 0.0261 | 753 | 0.352
7 | B7 | 0.0489 | 424 | 0.681
8 | B8 | 0.0508 | 660 | 1.06
9 | Y[Aib]EGT[αMePhe(2-F)]TSDV[Aib]I[αMeL]LD[Orn]QAQ[Aib]EFIK([AEEA-AEEA-γGlu-Decanoyl(10-(4-HOOC-PhO))])[αMeY]LIK([AEEA-AEEA-γGlu-Decanoyl(10-(4-HOOC-PhO))])GGPSSGAPPPS-NH2 [Y-Aib-EGT-αMeF(2F)-TSDV-Aib-I-αMeL-LD-Orn …] | 0.0369 | 109 | 0.382
